Positions count from the first letter of the chain named. Where “and” joins values, the source holds several entries; their conditions need not be identical. Equal entries are not always repeated.
B1: 68A, 72A (protein, listed as Rattus norvegicus)
chain: AFDGTWKVDRNENYEKFMEKMGINVVKRKLGAHDNLKLTITQEGNKFTVKESSNFRNIDVVFELGVDAAYSAADGTELTGTWTMEGNKLVGKFKRVDNGKELIAVREISGNELIQTYTYEGVEAKRIFKKE
modifications: PEPTIDE (1)...(131) wild-type rat intestinal fatty acid binding protein
B2: 72E (protein, listed as Rattus norvegicus)
chain: B1 chain with A68F, A72E
modifications: PEPTIDE (1)...(131) wild-type rat intestinal fatty acid binding protein
B3: 72D (protein, listed as Rattus norvegicus)
chain: B1 chain with A68F, A72D
modifications: PEPTIDE (1)...(131) wild-type rat intestinal fatty acid binding protein
B4: 68V, 72A (protein, listed as Rattus norvegicus)
chain: B1 chain with A68V
modifications: PEPTIDE (1)...(131) wild-type rat intestinal fatty acid binding protein
B5: 68T, 72A (protein, listed as Rattus norvegicus)
chain: B1 chain with A68T
modifications: PEPTIDE (1)...(131) wild-type rat intestinal fatty acid binding protein
B6: 68M, 72A (protein, listed as Rattus norvegicus)
chain: B1 chain with A68M
modifications: PEPTIDE (1)...(131) wild-type rat intestinal fatty acid binding protein
B7: 68E, 72A (protein, listed as Rattus norvegicus)
chain: B1 chain with A68E
modifications: PEPTIDE (1)...(131) wild-type rat intestinal fatty acid binding protein
B8: 72G (protein, listed as Rattus norvegicus)
chain: B1 chain with A68F, A72G
modifications: PEPTIDE (1)...(131) wild-type rat intestinal fatty acid binding protein
B9: 104D1, 72A (protein, listed as Rattus norvegicus)
chain: B1 chain with A68F, A104D
modifications: PEPTIDE (1)...(131) wild-type rat intestinal fatty acid binding protein
B10: 70M, 72A (protein, listed as Rattus norvegicus)
chain: B1 chain with A68F, Y70M
modifications: PEPTIDE (1)...(131) wild-type rat intestinal fatty acid binding protein
B11: 102Y, 72A (protein, listed as Rattus norvegicus)
chain: B1 chain with A68F, L102Y
modifications: PEPTIDE (1)...(131) wild-type rat intestinal fatty acid binding protein
B12: 68I, 72A (protein, listed as Rattus norvegicus)
chain: B1 chain with A68I
modifications: PEPTIDE (1)...(131) wild-type rat intestinal fatty acid binding protein
B13: 68N, 72A (protein, listed as Rattus norvegicus)
chain: B1 chain with A68N
modifications: PEPTIDE (1)...(131) wild-type rat intestinal fatty acid binding protein
B14: 68D, 72A (protein, listed as Rattus norvegicus)
chain: B1 chain with A68D
modifications: PEPTIDE (1)...(131) wild-type rat intestinal fatty acid binding protein
B15: 68S, 72A (protein, listed as Rattus norvegicus)
chain: B1 chain with A68S
modifications: PEPTIDE (1)...(131) wild-type rat intestinal fatty acid binding protein
B16: 72C (protein, listed as Rattus norvegicus)
chain: B1 chain with A68F, A72C
modifications: PEPTIDE (1)...(131) wild-type rat intestinal fatty acid binding protein
B17: 68G, 72A (protein, listed as Rattus norvegicus)
chain: B1 chain with A68G
modifications: PEPTIDE (1)...(131) wild-type rat intestinal fatty acid binding protein
B18: 72K (protein, listed as Rattus norvegicus)
chain: B1 chain with A68F, A72K
modifications: PEPTIDE (1)...(131) wild-type rat intestinal fatty acid binding protein
B19: 68L, 72A (protein, listed as Rattus norvegicus)
chain: B1 chain with A68L
modifications: PEPTIDE (1)...(131) wild-type rat intestinal fatty acid binding protein
B20: 68Q, 72A (protein, listed as Rattus norvegicus)
chain: B1 chain with A68Q
modifications: PEPTIDE (1)...(131) wild-type rat intestinal fatty acid binding protein
B21: 68C, 72A (protein, listed as Rattus norvegicus)
chain: B1 chain with A68C
modifications: PEPTIDE (1)...(131) wild-type rat intestinal fatty acid binding protein
B22: 70C, 72A (protein, listed as Rattus norvegicus)
chain: B1 chain with A68F, Y70C
modifications: PEPTIDE (1)...(131) wild-type rat intestinal fatty acid binding protein
B23: 68Y, 72A (protein, listed as Rattus norvegicus)
chain: B1 chain with A68Y
modifications: PEPTIDE (1)...(131) wild-type rat intestinal fatty acid binding protein

Test: Probe fluorescence ratio response to linoleic acid relative to ADIFAB2
Assay type: binding
Details: response relative to ADIFAB2
Summary of the method: (§1)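 Each fatty acid's response was expressed relative to ADIFAB2, the rI-FABP-L72A probe, as ΔR/ΔRreference. ΔR is the change in the background-corrected two-wavelength intensity ratio R=Fλ1/Fλ2 from its analyte-free baseline R0. Emission was read near about 420-480 nm for unbound and about 495-580 nm for FFA-bound probe.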
With B1 the “DR/DR LA” value was 0.18.
For B2, the “DR/DR LA” value was 0.38.
With B3 the “DR/DR LA” value was 0.37.
In the case of B4, the “DR/DR LA” value is reported as 0.23.
In the case of B5, the “DR/DR LA” value is reported as 0.11.
For B6, the “DR/DR LA” value was 0.34.
In the case of B7, the “DR/DR LA” value is reported as 0.96.
For B8, the “DR/DR LA” value was 0.48 and 0.544.
For B9, the “DR/DR LA” value was 0.71.
For B10, the “DR/DR LA” value was 0.39.
For B11, the “DR/DR LA” value was 0.82 and 0.818.
With B12 the “DR/DR LA” value was 0.37.
With B13 the “DR/DR LA” value was 0.67.
With B14 the “DR/DR LA” value was 1.23.
For B15, the “DR/DR LA” value was 0.14.
In the case of B16, the “DR/DR LA” value is reported as 0.25.
For B17, the “DR/DR LA” value was 0.17.
With B18 the “DR/DR LA” value was 0.26.
In the case of B19, the “DR/DR LA” value is reported as 0.53.
For B20, the “DR/DR LA” value was 0.43.
With B21 the “DR/DR LA” value was 0.12.
For B22, the “DR/DR LA” value was 0.27.
With B23 the “DR/DR LA” value was 0.36.

Test: Probe fluorescence ratio response to arachidonic acid relative to ADIFAB2
Assay type: binding
Details: Arachidonic acid; response relative to ADIFAB2
Summary of the method: as §1
With B1 the “DR/DR AA” value was 0.23.
With B2 the “DR/DR AA” value was 0.27.
For B3, the “DR/DR AA” value was 0.27.
With B4 the “DR/DR AA” value was 0.29.
With B5 the “DR/DR AA” value was 0.18.
In the case of B6, the “DR/DR AA” value is reported as 0.52.
With B7 the “DR/DR AA” value was 0.89.
In the case of B8, the “DR/DR AA” value is reported as 0.62.
With B10 the “DR/DR AA” value was 0.34.
With B12 the “DR/DR AA” value was 0.42.
With B13 the “DR/DR AA” value was 0.67.
In the case of B14, the “DR/DR AA” value is reported as 1.24.
For B15, the “DR/DR AA” value was 0.20.
With B16 the “DR/DR AA” value was 0.14.
With B17 the “DR/DR AA” value was 0.24.
In the case of B18, the “DR/DR AA” value is reported as 0.26.
For B19, the “DR/DR AA” value was 0.66.
With B20 the “DR/DR AA” value was 0.47.
For B21, the “DR/DR AA” value was 0.18.
In the case of B22, the “DR/DR AA” value is reported as 0.23.
In the case of B23, the “DR/DR AA” value is reported as 0.42.

Same assay, conditions: arachidonic acid; response relative to ADIFAB2
For B8, the “DR/DR AA” value was 0.871.
For B9, the “DR/DR AA” value was 0.48.
For B11, the “DR/DR AA” value was 0.72 and 0.718.
For B19, the “DR/DR AA” value was 0.658.

Test: Probe fluorescence ratio response to linolenic acid relative to ADIFAB2
Assay type: binding
Details: response relative to ADIFAB2
Summary of the method: as §1
In the case of B1, the “DR/DR LNA” value is reported as 0.19.
For B2, the “DR/DR LNA” value was 0.36.
With B3 the “DR/DR LNA” value was 0.41.
In the case of B4, the “DR/DR LNA” value is reported as 0.22.
With B5 the “DR/DR LNA” value was 0.12.
With B6 the “DR/DR LNA” value was 0.35.
With B7 the “DR/DR LNA” value was 0.92.
For B8, the “DR/DR LNA” value was 0.48 and 0.590.
For B9, the “DR/DR LNA” value was 0.67.
With B10 the “DR/DR LNA” value was 0.53.
For B11, the “DR/DR LNA” value was 0.73 and 0.732.
In the case of B12, the “DR/DR LNA” value is reported as 0.36.
In the case of B13, the “DR/DR LNA” value is reported as 0.60.
With B14 the “DR/DR LNA” value was 1.23.
With B15 the “DR/DR LNA” value was 0.14.
For B16, the “DR/DR LNA” value was 0.17.
For B17, the “DR/DR LNA” value was 0.18.
For B18, the “DR/DR LNA” value was 0.31.
For B19, the “DR/DR LNA” value was 0.52.
With B20 the “DR/DR LNA” value was 0.38.
For B21, the “DR/DR LNA” value was 0.25.
For B22, the “DR/DR LNA” value was 0.24.
For B23, the “DR/DR LNA” value was 0.41.

Test: Probe fluorescence ratio response to oleic acid relative to ADIFAB2
Assay type: binding
Details: response relative to ADIFAB2
Summary of the method: as §1
In the case of B1, the “DR/DR OA” value is reported as 0.19.
For B2, the “DR/DR OA” value was 0.34.
For B3, the “DR/DR OA” value was 0.28.
In the case of B4, the “DR/DR OA” value is reported as 0.25.
With B5 the “DR/DR OA” value was 0.13.
For B6, the “DR/DR OA” value was 0.35.
For B7, the “DR/DR OA” value was 0.91.
With B8 the “DR/DR OA” value was 0.52 and 0.628.
In the case of B9, the “DR/DR OA” value is reported as 0.64.
In the case of B10, the “DR/DR OA” value is reported as 0.42.
For B11, the “DR/DR OA” value was 0.86.
With B12 the “DR/DR OA” value was 0.39.
With B13 the “DR/DR OA” value was 0.63.
For B14, the “DR/DR OA” value was 1.13.
With B15 the “DR/DR OA” value was 0.14.
In the case of B16, the “DR/DR OA” value is reported as 0.20.
In the case of B17, the “DR/DR OA” value is reported as 0.21.
In the case of B18, the “DR/DR OA” value is reported as 0.19.
In the case of B19, the “DR/DR OA” value is reported as 0.55 and 0.547.
In the case of B20, the “DR/DR OA” value is reported as 0.45.
In the case of B21, the “DR/DR OA” value is reported as 0.29.
In the case of B22, the “DR/DR OA” value is reported as 0.24.
In the case of B23, the “DR/DR OA” value is reported as 0.46.

Test: Probe fluorescence ratio response to palmitic acid relative to ADIFAB2
Assay type: binding
Details: response relative to ADIFAB2
Summary of the method: as §1
For B1, the “DR/DR PA” value was 0.13.
For B2, the “DR/DR PA” value was 0.19.
In the case of B3, the “DR/DR PA” value is reported as 0.24.
With B4 the “DR/DR PA” value was 0.19.
For B5, the “DR/DR PA” value was 0.10.
For B6, the “DR/DR PA” value was 0.33.
With B7 the “DR/DR PA” value was 0.53.
In the case of B8, the “DR/DR PA” value is reported as 0.26 and 0.307.
With B9 the “DR/DR PA” value was 0.34.
For B10, the “DR/DR PA” value was 0.26.
With B11 the “DR/DR PA” value was 0.39 and 0.387.
With B12 the “DR/DR PA” value was 0.35.
For B13, the “DR/DR PA” value was 0.35.
With B14 the “DR/DR PA” value was 0.52.
With B15 the “DR/DR PA” value was 0.10.
With B16 the “DR/DR PA” value was 0.12.
With B17 the “DR/DR PA” value was 0.12.
For B18, the “DR/DR PA” value was 0.13.
With B19 the “DR/DR PA” value was 0.52 and 0.524.
For B20, the “DR/DR PA” value was 0.28.
In the case of B21, the “DR/DR PA” value is reported as 0.13.
With B22 the “DR/DR PA” value was 0.14.
In the case of B23, the “DR/DR PA” value is reported as 0.35.

From US20060257938A1, “Method of screening for drugs that block ligand binding to a lipid binding protein” (priority 2005, published 2006)
